For the assay, the target named is H5 GCN4 (IN05 HA, GCN4-trimerized) (Influenza A virus …, UniProt A5A5L7, stabilised). Description: negative-stain EM. The settings on record: both partners purified.

This is an account of results in article PMC10998906 (NPJ Vaccines, 2024).

Broadly, the stoichiometry N is a count of units in the complex or per binding partner.

B1: CR9114 Fab (Fab, V domains shown)
VH: QVQLVQSGAEVKKPGSSVKVSCKSSGGTSNNYAISWVRQAPGQGLDWMGGISPIFGSTAYAQKFQGRVTISADIFSNTAYMELNSLTSEDTAVYFCARHGNYYYYSGMDVWGQGTTVTVSS
VL: QSALTQPPAVSGTPGQRVTISCSGSDSNIGRRSVNWYQQFPGTAPKLLIYSNDQRPSVVPDRFSGSKSGTSASLAISGLQSEDEAEYYCAAWDDSLKGAVFGGGTQLTVL
Regarding B1, the “stoichiometry N” value was found to be 3 Fabs per trimer.
